For 36 sequences, Kd results are on record in the Immune Epitope Database (IEDB).

Among the targets are HLA-A*68:01; HLA-A*33:01; HLA-A*03:01; HLA-A*11:01; HLA-A*31:01.
What all share (assay): IEDB peptide-MHC binding, purified MHC/competitive/radioactivity; filed as Kd, often an IC50 or EC50 that approximates it; ≥ and ≤ were set here for values at or beyond the usual limits of such assays
Setting [1] is: source organism: Vaccinia virus WR.
[2] abbreviates: source organism: Dengue virus 1 Nauru/West Pac/1974.
The mark [3] stands for this setting: source organism: Mammarenavirus machupoense.
The mark [4] stands for this setting: source organism: Lassa virus Josiah.
[5] abbreviates: source organism: Dengue virus 2 Jamaica/1409/1983.
Setting [6] is: source organism: Dengue virus 4 Philippines/H241/1956.
[7] abbreviates: source organism: Mammarenavirus lassaense.
Where [8] appears, read: source organism: Dengue virus 3 Martinique/1243/1999.
Where [9] appears, read: source organism: Lymphocytic choriomeningitis virus (strain Pasteur).
Setting [10] is: source organism: Dengue virus 1 Brazil/97-11/1997.

Consider VTPEYIKDLK, for which the Kd with HLA-A*68:01 (setting [1]) is 374 nM; with HLA-A*33:01 (setting [1]), ≥ 70000 nM; in the test with HLA-A*03:01 (setting [1]) it was 14300 nM; with HLA-A*11:01 (setting [1]), 522 nM; with HLA-A*31:01 (setting [1]) it was 15100 nM.

Consider VTLFFLSGR, for which the Kd turned out to be 98 nM in the test with HLA-A*33:01 (setting [2]) and 7490 nM with HLA-A*31:01 (setting [2]).

LIKTILASY: the Kd with HLA-A*68:01 (setting [1]) was found to be 10300 nM; with HLA-A*33:01 (setting [1]), 18700 nM; in the test with HLA-A*03:01 (setting [1]), 568 nM; with HLA-A*11:01 (setting [1]), 7870 nM; with HLA-A*31:01 (setting [1]), 7440 nM.

On to GLYNHNNTTY, for which the Kd came to 938 nM with HLA-A*68:01 (setting [1]); 14200 nM with HLA-A*33:01 (setting [1]); 21 nM with HLA-A*03:01 (setting [1]); 75.5 nM with HLA-A*11:01 (setting [1]); 7950 nM in the test with HLA-A*31:01 (setting [1]).

In the case of TIDNPTKYIR, the Kd with HLA-A*68:01 (setting [1]) was determined as 158 nM; with HLA-A*33:01 (setting [1]), 4260 nM; in the test with HLA-A*03:01 (setting [1]), 15700 nM; in the test with HLA-A*11:01 (setting [1]) it was 2600 nM; with HLA-A*31:01 (setting [1]), 115 nM.

SFFQEIPVFL: the Kd in the test with HLA-A*68:01 (setting [3]) is ≥ 49200 nM; in the test with HLA-A*33:01 (setting [3]), 2410 nM; in the test with HLA-A*03:01 (setting [3]), ≥ 70000 nM; in the test with HLA-A*11:01 (setting [3]), ≥ 59700 nM; with HLA-A*31:01 (setting [3]), 613 nM.

With RASLIPDATH, the Kd is 19600 nM in the test with HLA-A*68:01 (setting [4]), ≥ 50700 nM with HLA-A*33:01 (setting [4]), ≥ 59100 nM with HLA-A*11:01 (setting [4]) and 1980 nM with HLA-A*31:01 (setting [4]).

In the case of EIARIENEMK, the Kd in the test with HLA-A*68:01 (setting [1]) was 7.11 nM; in the test with HLA-A*33:01 (setting [1]) it was 7050 nM; with HLA-A*03:01 (setting [1]), 5610 nM; in the test with HLA-A*11:01 (setting [1]), 3630 nM; in the test with HLA-A*31:01 (setting [1]), ≥ 70000 nM.

As for ILAALFMYY, the Kd with HLA-A*68:01 (setting [1]) was 36.3 nM; with HLA-A*33:01 (setting [1]), 16000 nM; in the test with HLA-A*03:01 (setting [1]), 0.175 nM; with HLA-A*11:01 (setting [1]) it was 0.309 nM; with HLA-A*31:01 (setting [1]) it was 6400 nM.

For the sequence RAVKFAEESY, the Kd with HLA-A*68:01 (setting [1]) is 7290 nM; with HLA-A*33:01 (setting [1]) it was ≥ 70000 nM; in the test with HLA-A*03:01 (setting [1]), 14800 nM; in the test with HLA-A*11:01 (setting [1]), 14500 nM; with HLA-A*31:01 (setting [1]), ≥ 70000 nM.

For the sequence RSTPFNMLKR, the Kd with HLA-A*31:01 (setting [5]) was found to be 1390 nM.

For the sequence SSRVDRYSK, the Kd with HLA-A*68:01 (setting [1]) is 611 nM; with HLA-A*33:01 (setting [1]), 1210 nM; with HLA-A*03:01 (setting [1]), 65.9 nM; with HLA-A*11:01 (setting [1]), 16.9 nM; with HLA-A*31:01 (setting [1]) it was 266 nM.

Turning to ATTILTPMLR, the Kd in the test with HLA-A*68:01 (setting [6]) is 284 nM; with HLA-A*11:01 (setting [6]), 129 nM; with HLA-A*31:01 (setting [6]), 77.3 nM.

Regarding VIEYAKSISK, the Kd in the test with HLA-A*68:01 (setting [1]) was 2720 nM; with HLA-A*33:01 (setting [1]) it was 17500 nM; with HLA-A*03:01 (setting [1]) it was 129 nM; with HLA-A*11:01 (setting [1]), 165 nM; in the test with HLA-A*31:01 (setting [1]) it was 10800 nM.

Turning to ENAVWDQCK, the Kd with HLA-A*68:01 (setting [7]) is 1480 nM; with HLA-A*33:01 (setting [7]) it was ≥ 38000 nM; with HLA-A*03:01 (setting [7]), ≥ 78000 nM; in the test with HLA-A*11:01 (setting [7]) it was ≥ 77900 nM; with HLA-A*31:01 (setting [7]), ≥ 77900 nM.

On to VSTGESSILR, for which the Kd with HLA-A*68:01 (setting [1]) is 119 nM; in the test with HLA-A*33:01 (setting [1]), 3230 nM; with HLA-A*03:01 (setting [1]), ≥ 24900 nM; in the test with HLA-A*11:01 (setting [1]), 204 nM; with HLA-A*31:01 (setting [1]), 1390 nM.

With VVRPPFNMLK, the Kd turned out to be 4.44 nM with HLA-A*03:01 (setting [6]) and 70.9 nM in the test with HLA-A*11:01 (setting [6]).

Regarding KLILAEYIR, the Kd in the test with HLA-A*68:01 (setting [1]) was found to be 2090 nM; with HLA-A*33:01 (setting [1]) it was 9560 nM; with HLA-A*03:01 (setting [1]), 8070 nM; in the test with HLA-A*11:01 (setting [1]) it was 15200 nM; in the test with HLA-A*31:01 (setting [1]), 68.1 nM.

Turning to RMIVGKNER, the Kd with HLA-A*31:01 (setting [8]) was 16.1 nM.

For the sequence TYLGPLNCK, the Kd with HLA-A*68:01 (setting [9]) turned out to be 699 nM; with HLA-A*33:01 (setting [9]) it was 834 nM; in the test with HLA-A*03:01 (setting [9]), 481 nM; with HLA-A*11:01 (setting [9]) it was 47.8 nM; with HLA-A*31:01 (setting [9]), 5220 nM.

Consider TMPNESRVK, for which the Kd with HLA-A*68:01 (setting [1]) was 2040 nM; in the test with HLA-A*33:01 (setting [1]), ≥ 77700 nM; in the test with HLA-A*03:01 (setting [1]), 17500 nM; with HLA-A*11:01 (setting [1]), 930 nM; with HLA-A*31:01 (setting [1]), ≥ 61600 nM.

CVDIFTEGK: the Kd was 18.6 nM with HLA-A*68:01 (setting [1]); ≥ 77700 nM with HLA-A*33:01 (setting [1]); 3750 nM with HLA-A*03:01 (setting [1]); 78.3 nM with HLA-A*11:01 (setting [1]); 16300 nM in the test with HLA-A*31:01 (setting [1]).

Turning to TTILDVDLR, in the test with HLA-A*68:01 (setting [6]), the Kd stood at 35.8 nM.

For QAAVLMGLGK, in the test with HLA-A*68:01 (setting [6]), the Kd was determined as 60.7 nM.

As for LITGNMSFR, the Kd with HLA-A*68:01 (setting [5]) turned out to be 26.2 nM; with HLA-A*33:01 (setting [5]), 1310 nM.

Take SLLTCAKFK: in the test with HLA-A*03:01 (setting [10]), the Kd amounted to 21 nM.

As to IIPALFEPER, the Kd with HLA-A*68:01 (setting [10]) was 76.7 nM.

Turning to RMCTREEFTR, the Kd in the test with HLA-A*33:01 (setting [5]) turned out to be 654 nM; in the test with HLA-A*31:01 (setting [5]), 5.72 nM.

As for LIKNAQTPR, the Kd in the test with HLA-A*31:01 (setting [6]) is 13.6 nM.

In the case of LVAPSYGMR, the Kd in the test with HLA-A*68:01 (setting [6]) came to 3.84 nM.

On to TAKLRWFVER, for which the Kd was 34.2 nM with HLA-A*33:01 (setting [10]) and ≥ 28400 nM with HLA-A*31:01 (setting [10]).

In the case of LLLTSSQQK, in the test with HLA-A*03:01 (setting [5]), the Kd stood at 15.5 nM.

Take DFWKLVDRER: the Kd with HLA-A*33:01 (setting [8]) came to 1.51 nM.

Turning to STYGWNIVK, in the test with HLA-A*03:01 (setting [8]), the Kd was determined as 4.75 nM.

Consider EWLWRTLGR, for which, in the test with HLA-A*33:01 (setting [8]), the Kd came out at 8.26 nM.

As to KKKTPRMCTR, the Kd in the test with HLA-A*31:01 (setting [5]) was determined as 768 nM.
